B1: COVIC-23 (antibody, V domains shown)
VH: EVQLLESGGGLVQPGGSLRLSCAASGFTFSNYPMNWVRQAPGKGLEWVSTISGSGGNTFYADSVKGRFTISRDNSKNTLYLQMNSLRAEDTAVYYCVRHDEYSFDYWGQGTLVTVSS
B2: COVIC-35 (antibody, V domains shown)
VH: EVQLVESGGGVVQPGRSLRLSCAASGFTFSSYAMHWVRQAPGKGLEWVAVISYDGSYKYYADSVKGRFTISRDNSKNTLYLQMNSLTAEDTAVYYCAREGSRQWLVIYFDYWGQGTLVTVSS
VL: AIRMTQSPSSLSASVGDRVTITCRASQSISSYLNWYQQKPGKAPKLLIYAASSLQSGVPSRFSGSGSGTDFTLTISSLQPEDFATYYCQQSYTTFIYTFGQGTKLEIK
B3: COVIC-299 (antibody, V domains shown)
VH: EVQLVESGGGLVQPGGSLRLSCAASGLIVSRNYMSWVRQAPGKGLEWVSVIYSGGSTFYADSVKGRFTISRDNSKNTLYLQMNSLRAEDTAVYYCARDLNIAGGFDIWGQGTMVTVSS
VL: DIQLTQSPSFLSASVGDRVTITCRASQGISSYLAWYQQKPGKAPKLLIYAASTLQSGVPSRFSGSGSGTDFTLTISSLQPEDFATYYCQHLNIDPITFGQGTRLEIK
B4: COVIC-42 (antibody, V domains shown)
VH: B3 VH with V12I, L27V, R31S, F58Y, N100D, I101V, A102S, F105M, I107V, M113T
VL: not shown
B5: COVIC-123 (antibody)
chain: QVQLQESGGGLVQAGGSLRLSCAASGRTFSEYAMGWFRQAPGKEREFVATISWSGGSTYYTDSVKGRFTISRDNAKNTVYLQMNSLKPDDTAVYYCAAAGLGTVVSEWDYDYDYWGQGTQVTVSSGGSGGSQVQLQESGGGLVQAGGSLRLSCAASGRTFSEYAMGWFRQAPGKEREFVATISWSGGSTYYTDSVKGRFTISRDNAKNTVYLQMNSLKPDDTAVYYCAAAGLGTVVSEWDYDYDYWGQGTQVTVSSGGGGSGGGGSEPKSCDKTHTCPPCPAPELLGGKKKPLDGEYFTLQIRGRERFEMFRELNEALELKDAQAGKEPGGGGGSGGGGSQVQLQESGGGLVQAGGSLRLSCAASGRTFSEYAMGWFRQAPGKEREFVATISWSGGSTYYTDSVKGRFTISRDNAKNTVYLQMNSLKPDDTAVYYCAAAGLGTVVSEWDYDYDYWGQGTQVTVSS
B6: COVIC-159 (antibody, V domains shown)
VH: EVQLVESGGGLIQPGGSLRLSCAASGFTVSSNYMNWVRQAPGKGLEWVSVIYSGGSTYYADSVKGRFTISRDNSKNTLFLQMNSLRAEDSAVYYCARDLGPYGVDVWGQGTTVTVSS
VL: DIQLTQSPSFLSASVGDRVTITCWASQGISSYLAWYQQKPGKAPKLLIYAASTLQSGVPSRFSGSGSGTEFTLTISSLQPEDFATYYCQELNSYPLTFGQGTRLEIKR
B7: COVIC-152 (antibody, V domains shown)
VH: QVQLQESGPGLVKPSQTLSLTCTVSGGSISSYGYYWSWIRQHPGKGLEWIGYIYYSGSTYYNPSLKSRVTMSVDTSKNQLSLRLNSVSAADTAVYYCARDFGGNSNYFDYWGQGTLVTVSS
VL: AIQLTQSPSSLSASVGDRVTITCRASQGISSALAWYQQKPGKAPNLLIYDASSLESGVPSRFSGSGSGTDFTLTISSLQPEDFATYYCQQFNSSPLTFGGGTKVEIKR
B8: COVIC-147 (antibody, V domains shown)
VH: EVQLVESGGGLIQPGGSLRLSCAASGFTVSSIYMSWVRQAPGKGLEWVSIIYSRGSTDYADSVKGRFTISRDISKNTLYLQMNSLRAEDTAVYYCARDGTMVRGVHAFDIWGQGTMVTVSS
VL: DIQMTQSPPSLSASIGDRVTITCQASQDISNYLNWYQQKPGKAPKLLIYDASNLETGVPSRFSGSGSGTDFTLTISNLQPEDIVTYYCQQYDNLPSSFGQGTKLEIKR
B9: COVIC-362 (antibody, V domains shown)
VH: EVQLVESGGGLVQPGGSLRLSCKASGISVAPHAVTWVRQAPGKGLEWIGVIASNADTYYASWAKGRFTISRDNSKNTLYLQMNSLRAEDTAVYYCARHPGSAGYGYTYYYAMDPWGQGTLVTVSS
VL: DIQMTQSPSSLSASVGDRVTITCQASERVFYGIDWYQQKPGKAPKLLIYGASALWHGVPSRFSGSGSGTDYTLTISSLQPEDFATYYCQQGYMVPIGFGGGTKVEIK
B10: COVIC-359 (antibody, V domains shown)
VH: B9 VH
VL: DIQMTQSPSSLSASVGDRVTITCKASEDIRYGLNWYQQKPGKAPKLLIYGANTLEAGVPSRFSGSGSGTDYTLTISSLQPEDFATYYCQQGYSTPLTFGGGTKVEIK
B11: COVIC-61 (antibody)
chain: QVQLQESGGGLVQAGGSLRLSCAASGRTFSEYAMGWFRQAPGKEREFVATISWSGGSTYYTDSVKGRFTISRDNAKNTVYLQMNSLKPDDTAVYYCAAAGLGTVVSEWDYDYDYWGQGTQVTVSSGGSGGSQVQLQESGGGLVQAGGSLRLSCAASGRTFSEYAMGWFRQAPGKEREFVATISWSGGSTYYTDSVKGRFTISRDNAKNTVYLQMNSLKPDDTAVYYCAAAGLGTVVSEWDYDYDYWGQGTQVTVSSGGGGSGGGGSKKKPLDGEYFTLQIRGRERFEMFRELNEALELKDAQAGKEPG
B12: COVIC-185 (antibody, V domains shown)
VH: QVQLVQSGAEVKKPGASVRVSCKASGYTFTGYYMHWVRQAPGQGLEWMGWINPISDGTNYAQKFQGWVTMTRDTSISTVYMELSRLRSDDTAVYYCARGGSRCSGGNCYGWAYDAFDIWGQGTMITVSS
VL: QSALTQPASVSGSPGQSITISCTGTSSDVGGYNFVSWYQQHPGKAPKLMIYDVSKRPSGVSNRFSGSKSGNTASLTISGLQAEDEADCYCSSYTSSSTFVFGTGTKVTVL
B13: COVIC-337 (antibody, V domains shown)
VH: EVQLVQSGAEVKKPGSSVKVSCKASGGTFSMHTIRWVRQAPGQGLEWMGRIIPMLGIVNYAQKFQGRVTISADKSTSTAYMELSSLTSEDTAMYYCAKGSHDVFDIWGQGTMVTVSS
VL: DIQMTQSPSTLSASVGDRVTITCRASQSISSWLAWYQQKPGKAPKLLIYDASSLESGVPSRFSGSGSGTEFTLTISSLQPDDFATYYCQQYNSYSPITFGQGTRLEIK
B14: COVIC-263 (antibody, V domains shown)
VH: QVQLQESGPRLVKPSETLSLTCTVSGGSISGSNYFWGWIRQPPGKGLEWIGTIYYGGSTYYNPSLKSRVTISVDTSENQFSLKLSSVTAADTAVYYCANLAWLRGYFDYWGQGTLVTVSS
VL: NFMLTQPHSVSESPGKTVTISCTRSSGSIASNYVQWYQQRPGSAPTTVIYEDNQRPSGVPDRFSGSIDSSSNSVSLTISGLKTEDEADYYCQSYDSSNWVFGGGTKLTVLG
B15: COVIC-332 (antibody, V domains shown)
VH: QVQLVQSGAEVKKPGSSLKVSCKASGGTFNNFAISWVRQAPGQGPEWMGRINPILSAAKYAQKFQGRLTITADKSTTTAYMELSSLRSEDTAVYYCAPTGTGESWWFDPWGQGTLVTVSS
VL: QSVLTQPPSASGTPGQRVTISCSGSSSNIGTNYVYWYQQLPGTAPKVLIYGNNQRPSGVPDRFSGSKSGSSASLAISGLRSEDEADYYCAAWDDSLSGPVFGGGTKLTVL
B16: COVIC-119 (antibody)
chain 1: QVQLQESGGGLVQAGGSLRLSCAASGRTFSEYAMGWFRQAPGKEREFVATISWSGGSTYYTDSVKGRFTISRDNAKNTVYLQMNSLKPDDTAVYYCAAAGLGTVVSEWDYDYDYWGQGTQVTVSSGGSGGSQVQLQESGGGLVQAGGSLRLSCAASGRTFSEYAMGWFRQAPGKEREFVATISWSGGSTYYTDSVKGRFTISRDNAKNTVYLQMNSLKPDDTAVYYCAAAGLGTVVSEWDYDYDYWGQGTQVTVSSGGGGSGGGGSASTKGPSVFPLAPSSKSTSGGTAALGCLVKDYFPEPVTVSWNSGALTSGVHTFPAVLQSSGLYSLSSVVTVPSSSLGTQTYICNVNHKPSNTKVDKKVEPKSCDKTHTKKKPLDGEYFTLQIRGRERFEMFRELNEALELKDAQAGKEPG
chain 2: QVQLQESGGGLVQAGGSLRLSCAASGRTFSEYAMGWFRQAPGKEREFVATISWSGGSTYYTDSVKGRFTISRDNAKNTVYLQMNSLKPDDTAVYYCAAAGLGTVVSEWDYDYDYWGQGTQVTVSSGGSGGSQVQLQESGGGLVQAGGSLRLSCAASGRTFSEYAMGWFRQAPGKEREFVATISWSGGSTYYTDSVKGRFTISRDNAKNTVYLQMNSLKPDDTAVYYCAAAGLGTVVSEWDYDYDYWGQGTQVTVSSGGGGSGGGGSKRTVAAPSVFIFPPSDEQLKSGTASVVCLLNNFYPREAKVQWKVDNALQSGNSQESVTEQDSKDSTYSLSSTLTLSKADYEKHKVYACEVTHQGLSSPVTKSFNRGEC
B17: COVIC-28 (antibody, V domains shown)
VH: QVQLVQSGAEVKKPGASVKVSCKASGYTFTSYYMHWVRQAPGQGLEWMGIINSSGGSTSYAQKFQGRVTMTRDTSTSTVYMELSSLRSEDTAVYYCARPPRNYYDRSGYYQRAEYFQHWGQGTLVTVSS
VL: DIQLTQSPSSLSASVGDRVTITCQASQDISNYLNWYQQRPGKAPKLLIYDASNLETGVPSRFSGSGSGTDFTFTISSLQPEDIATYYCQQYDNPPLTFGGGTKLEIK
B18: COVIC-78 (antibody, V domains shown)
VH: QVQLVQSGAEVKKPGSSVKVSCKASGGTFSTSTFNWVRQAPGQGLEWMGGIIPIFGTVNYAQKFQGRVTITADESTGTAYMELSSLRSEDTAVYYCATLGQWDLLPRWGQGTLVTVSS
VL: KIVLTQSPDTLSLSPGERATLSCRASQSVDSNYLAWYQQKPGQAPRLLIYGASSRATGIPDRFSGSGSGTDFTLTISRLEPEDFAVYYCQQYGSSYTFGQGTKLEIK
B19: COVIC-303 (antibody, V domains shown)
VH: QVTLKESGPVLVKPTETLTLTCTVSGFSLSNARMGVSWIRQPPGKALEWLAHIFSNGEKSYSTSLKSRLTISKDTSKSQVVLTMTNMDPVDTATYYCARTLDYYDSSGYLVGGAFDIWGQGTMVTVSS
VL: QPGLTQPPSVSLAPGQTARITCGGNNIGSKSVHWYQQKPGQAPVLVVYDDSDRPSGIPERFSGSNAGNTATLTISRVEAGDEADYYCQVWDSRSDQYVFGTRTKLTVLG

Residue numbers refer to the chain shown, from its start.

The target in this test is SARS-CoV-2 spike RBD (Wuhan-Hu-1) (Severe acute respiratory syndrome …, UniProt P0DTC2). Description: SPR. A general note: Surface plasmon resonance follows binding to a sensor surface in real time, without labels.
In general, Kd refers to the equilibrium constant for the complex coming apart. Take B1: the Kd stood at 71.3 nM.

In turn, B2 returned a Kd of 2.81 nM.

B3: the Kd stood at 0.332 nM.

The molecule B4 showed an equilibrium dissociation constant (Kd) of 11 nM.

The molecule B5 showed a Kd of 206 nM.

For B6, the Kd was 24.9 nM.

B7 had a Kd of 3.02 nM.

B8 returned a Kd of 2.3 nM.

For the molecule B9, binding was put at a Kd of 0.00985 nM.

With B10, binding was put at a Kd of 0.0139 nM.

B11 gave a dissociation constant (Kd) of 195 nM.

Turning to B12, the dissociation constant (Kd) was determined as 12.3 nM.

B13: the affinity, expressed as Kd, was 3.02 nM.

In turn, B14 yielded a Kd of 0.0861 nM.

As to B15, binding was put at a Kd of 0.111 nM.

The molecule B16 returned a dissociation constant (Kd) of 179 nM.

For B17, the Kd is 12.3 nM.

Take B18: binding was put at a Kd of 393 nM.

Molecule B19 returned a Kd of 0.168 nM.

Source of the values: PMC12014896 (2025).
